Columns and labels:
[1] = target: rHuman EGF R/Fc Chimera, CF (Cat# 344-ER) (human) (UniProt P00533); test: Multispot ECL; Fab […]
[2] = target: rHuman ErbB2/Fc Chimera, CF (Cat# 1129-ER) (human) (UniProt P04626); test: Multispot ECL; Fab […]
[3] = target: rHuman Erythropoietin R/Fc Chimera, CF (Cat# 963-ER) (human) (UniProt P19235); test: Multispot ECL; Fab […]
[4] = target: rHuman HGF R/c-MET/Fc Chimera, CF (Cat# 358-MT/CF) (human) (UniProt P08581); test: Multispot ECL; Fab […]
[5] = target: rHuman IGF-1 sR, (IGF-1 sR), CF (Cat# 391-GR) (human) (UniProt P08069); test: Multispot ECL; Fab […]
[6] = target: rHuman Notch-1/Fc Chimera, CF (Cat# 3647-TK) (human) (UniProt P46531); test: Multispot ECL; Fab […]
[7] = target: rHuman EGF R/Fc Chimera, CF (Cat# 344-ER) (human) (UniProt P00533); test: Multispot ECL; Fab 210 nM
[8] = target: rHuman ErbB2/Fc Chimera, CF (Cat# 1129-ER) (human) (UniProt P04626); test: Multispot ECL; Fab 210 nM
[9] = target: rHuman Erythropoietin R/Fc Chimera, CF (Cat# 963-ER) (human) (UniProt P19235); test: Multispot ECL; Fab 210 nM
[10] = target: rHuman HGF R/c-MET/Fc Chimera, CF (Cat# 358-MT/CF) (human) (UniProt P08581); test: Multispot ECL; Fab 210 nM
[11] = target: rHuman IGF-1 sR, (IGF-1 sR), CF (Cat# 391-GR) (human) (UniProt P08069); test: Multispot ECL; Fab 210 nM
[12] = target: rHuman Notch-1/Fc Chimera, CF (Cat# 3647-TK) (human) (UniProt P46531); test: Multispot ECL; Fab 210 nM
[13] = target: rHuman EGF R/Fc Chimera, CF (Cat# 344-ER) (human) (UniProt P00533); test: Multispot ECL; Fab 3.3 nM
[14] = target: rHuman ErbB2/Fc Chimera, CF (Cat# 1129-ER) (human) (UniProt P04626); test: Multispot ECL; Fab 3.3 nM
[15] = target: rHuman Erythropoietin R/Fc Chimera, CF (Cat# 963-ER) (human) (UniProt P19235); test: Multispot ECL; Fab 3.3 nM
[16] = target: rHuman HGF R/c-MET/Fc Chimera, CF (Cat# 358-MT/CF) (human) (UniProt P08581); test: Multispot ECL; Fab 3.3 nM
[17] = target: rHuman IGF-1 sR, (IGF-1 sR), CF (Cat# 391-GR) (human) (UniProt P08069); test: Multispot ECL; Fab 3.3 nM
[18] = target: rHuman Notch-1/Fc Chimera, CF (Cat# 3647-TK) (human) (UniProt P46531); test: Multispot ECL; Fab 3.3 nM
[19] = target: rHuman EGF R/Fc Chimera, CF (Cat# 344-ER) (human) (UniProt P00533); test: Multispot ECL; Fab 52.5 nM
[20] = target: rHuman ErbB2/Fc Chimera, CF (Cat# 1129-ER) (human) (UniProt P04626); test: Multispot ECL; Fab 52.5 nM
[21] = target: rHuman Erythropoietin R/Fc Chimera, CF (Cat# 963-ER) (human) (UniProt P19235); test: Multispot ECL; Fab 52.5 nM
[22] = target: rHuman HGF R/c-MET/Fc Chimera, CF (Cat# 358-MT/CF) (human) (UniProt P08581); test: Multispot ECL; Fab 52.5 nM
[23] = target: rHuman IGF-1 sR, (IGF-1 sR), CF (Cat# 391-GR) (human) (UniProt P08069); test: Multispot ECL; Fab 52.5 nM
[24] = target: rHuman Notch-1/Fc Chimera, CF (Cat# 3647-TK) (human) (UniProt P46531); test: Multispot ECL; Fab 52.5 nM
[25] = target: rHuman EGF R/Fc Chimera, CF (Cat# 344-ER) (human) (UniProt P00533); test: Multispot ECL; Fab 145 nM
[26] = target: rHuman Erythropoietin R/Fc Chimera, CF (Cat# 963-ER) (human) (UniProt P19235); test: Multispot ECL; Fab 145 nM
[27] = target: rHuman HGF R/c-MET/Fc Chimera, CF (Cat# 358-MT/CF) (human) (UniProt P08581); test: Multispot ECL; Fab 145 nM
[28] = target: rHuman IGF-1 sR, (IGF-1 sR), CF (Cat# 391-GR) (human) (UniProt P08069); test: Multispot ECL; Fab 145 nM
[29] = target: rHuman Notch-1/Fc Chimera, CF (Cat# 3647-TK) (human) (UniProt P46531); test: Multispot ECL; Fab 145 nM
[30] = target: rHuman P-Cadherin/Fc Chimera, CF (Cat# 861-PC) (human) (UniProt P22223); test: Multispot ECL; Fab 145 nM
[31] = target: rHuman EGF R/Fc Chimera, CF (Cat# 344-ER) (human) (UniProt P00533); test: Multispot ECL; Fab 580 nM
[32] = target: rHuman ErbB2/Fc Chimera, CF (Cat# 1129-ER) (human) (UniProt P04626); test: Multispot ECL; Fab 580 nM
[33] = target: rHuman Erythropoietin R/Fc Chimera, CF (Cat# 963-ER) (human) (UniProt P19235); test: Multispot ECL; Fab 580 nM
[34] = target: rHuman HGF R/c-MET/Fc Chimera, CF (Cat# 358-MT/CF) (human) (UniProt P08581); test: Multispot ECL; Fab 580 nM
[35] = target: rHuman IGF-1 sR, (IGF-1 sR), CF (Cat# 391-GR) (human) (UniProt P08069); test: Multispot ECL; Fab 580 nM
[36] = target: rHuman Notch-1/Fc Chimera, CF (Cat# 3647-TK) (human) (UniProt P46531); test: Multispot ECL; Fab 580 nM
[37] = target: rHuman P-Cadherin/Fc Chimera, CF (Cat# 861-PC) (human) (UniProt P22223); test: Multispot ECL; Fab 580 nM
[38] = target: rHuman EGF R/Fc Chimera, CF (Cat# 344-ER) (human) (UniProt P00533); test: Multispot ECL; Fab 9.1 nM
[39] = target: rHuman ErbB2/Fc Chimera, CF (Cat# 1129-ER) (human) (UniProt P04626); test: Multispot ECL; Fab 9.1 nM
[40] = target: rHuman Erythropoietin R/Fc Chimera, CF (Cat# 963-ER) (human) (UniProt P19235); test: Multispot ECL; Fab 9.1 nM
[41] = target: rHuman HGF R/c-MET/Fc Chimera, CF (Cat# 358-MT/CF) (human) (UniProt P08581); test: Multispot ECL; Fab 9.1 nM
[42] = target: rHuman IGF-1 sR, (IGF-1 sR), CF (Cat# 391-GR) (human) (UniProt P08069); test: Multispot ECL; Fab 9.1 nM
[43] = target: rHuman Notch-1/Fc Chimera, CF (Cat# 3647-TK) (human) (UniProt P46531); test: Multispot ECL; Fab 9.1 nM
[44] = target: rHuman P-Cadherin/Fc Chimera, CF (Cat# 861-PC) (human) (UniProt P22223); test: Multispot ECL; Fab 9.1 nM
[45] = target: rHuman EGF R/Fc Chimera, CF (Cat# 344-ER) (human) (UniProt P00533); test: Multispot ECL; Fab 36.3 nM
[46] = target: rHuman ErbB2/Fc Chimera, CF (Cat# 1129-ER) (human) (UniProt P04626); test: Multispot ECL; Fab 36.3 nM
[47] = target: rHuman Erythropoietin R/Fc Chimera, CF (Cat# 963-ER) (human) (UniProt P19235); test: Multispot ECL; Fab 36.3 nM
[48] = target: rHuman HGF R/c-MET/Fc Chimera, CF (Cat# 358-MT/CF) (human) (UniProt P08581); test: Multispot ECL; Fab 36.3 nM
[49] = target: rHuman IGF-1 sR, (IGF-1 sR), CF (Cat# 391-GR) (human) (UniProt P08069); test: Multispot ECL; Fab 36.3 nM
[50] = target: rHuman Notch-1/Fc Chimera, CF (Cat# 3647-TK) (human) (UniProt P46531); test: Multispot ECL; Fab 36.3 nM
[51] = target: rHuman P-Cadherin/Fc Chimera, CF (Cat# 861-PC) (human) (UniProt P22223); test: Multispot ECL; Fab 36.3 nM
[52] = target: rHuman EGF R/Fc Chimera, CF (Cat# 344-ER) (human) (UniProt P00533); test: Multispot ECL; Fab 930 nM
[53] = target: rHuman P-Cadherin/Fc Chimera, CF (Cat# 861-PC) (human) (UniProt P22223); test: Multispot ECL; Fab 930 nM
[54] = target: rHuman EGF R/Fc Chimera, CF (Cat# 344-ER) (human) (UniProt P00533); test: Multispot ECL; Fab 14.5 nM
[55] = target: rHuman P-Cadherin/Fc Chimera, CF (Cat# 861-PC) (human) (UniProt P22223); test: Multispot ECL; Fab 14.5 nM
[56] = target: rHuman EGF R/Fc Chimera, CF (Cat# 344-ER) (human) (UniProt P00533); test: Multispot ECL; Fab 58.1 nM
[57] = target: rHuman P-Cadherin/Fc Chimera, CF (Cat# 861-PC) (human) (UniProt P22223); test: Multispot ECL; Fab 58.1 nM
[58] = target: rHuman EGF R/Fc Chimera, CF (Cat# 344-ER) (human) (UniProt P00533); test: Multispot ECL; Fab 232.5 nM
[59] = target: rHuman P-Cadherin/Fc Chimera, CF (Cat# 861-PC) (human) (UniProt P22223); test: Multispot ECL; Fab 232.5 nM

rHuman Erythropoietin R/Fc Chimera, CF (Cat# 963-ER) (human), sequence (P19235 25-250, change not shown): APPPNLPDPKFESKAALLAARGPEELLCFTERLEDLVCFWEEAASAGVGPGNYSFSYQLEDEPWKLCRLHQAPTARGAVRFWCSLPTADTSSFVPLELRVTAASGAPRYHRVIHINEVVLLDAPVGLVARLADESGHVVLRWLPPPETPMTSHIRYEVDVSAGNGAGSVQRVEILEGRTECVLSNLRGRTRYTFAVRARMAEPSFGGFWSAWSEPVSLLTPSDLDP

Question: For “Fab VH4-31_IGHD2-15*01_IGHJ2*01 & V1-4_IGLJ4*01”, which ECL signal [1] is on record?
Answer: 824

Question: What about the ECL signal [2] of the same substance?
Answer: 930

Question: What about the ECL signal [3] of the same substance?
Answer: 776

Question: And the ECL signal [4]?
Answer: 981

Question: What about the ECL signal [5] of the same substance?
Answer: 814

Question: What about the ECL signal [6] of the same substance?
Answer: 669

Question: And the ECL signal [7]?
Answer: 1620

Question: What about the ECL signal [8] of the same substance?
Answer: 1980

Question: And the ECL signal [9]?
Answer: 2120

Question: And the ECL signal [10]?
Answer: 2060

Question: And the ECL signal [11]?
Answer: 1430

Question: What about the ECL signal [12] of the same substance?
Answer: 1970

Question: And the ECL signal [13]?
Answer: 847

Question: And the ECL signal [14]?
Answer: 1030

Question: And the ECL signal [15]?
Answer: 695

Question: And the ECL signal [16]?
Answer: 849

Question: And the ECL signal [17]?
Answer: 743

Question: What about the ECL signal [18] of the same substance?
Answer: 726

Question: And the ECL signal [19]?
Answer: 1110

Question: What about the ECL signal [20] of the same substance?
Answer: 1510

Question: What about the ECL signal [21] of the same substance?
Answer: 1320

Question: What about the ECL signal [22] of the same substance?
Answer: 1290

Question: What about the ECL signal [23] of the same substance?
Answer: 911

Question: What about the ECL signal [24] of the same substance?
Answer: 1320

Question: How did the ECL signal [25] turn out when “Fab VH4-34_IGHD7-27*01_IGHJ4*01 & V1-4_IGLJ4*01” was run?
Answer: 856

Question: And the ECL signal [26]?
Answer: 845

Question: And the ECL signal [27]?
Answer: 1170

Question: And the ECL signal [28]?
Answer: 794

Question: And the ECL signal [29]?
Answer: 860

Question: And the ECL signal [30]?
Answer: 850

Question: What about the ECL signal [31] of the same substance?
Answer: 1630

Question: And the ECL signal [32]?
Answer: 1710

Question: What about the ECL signal [33] of the same substance?
Answer: 1580

Question: What about the ECL signal [34] of the same substance?
Answer: 2340

Question: And the ECL signal [35]?
Answer: 1360

Question: And the ECL signal [36]?
Answer: 1580

Question: And the ECL signal [37]?
Answer: 2240

Question: And the ECL signal [38]?
Answer: 800

Question: And the ECL signal [39]?
Answer: 987

Question: And the ECL signal [40]?
Answer: 697

Question: And the ECL signal [41]?
Answer: 894

Question: What about the ECL signal [42] of the same substance?
Answer: 788

Question: What about the ECL signal [43] of the same substance?
Answer: 754

Question: What about the ECL signal [44] of the same substance?
Answer: 589

Question: What about the ECL signal [45] of the same substance?
Answer: 831

Question: What about the ECL signal [46] of the same substance?
Answer: 1030

Question: And the ECL signal [47]?
Answer: 722

Question: What about the ECL signal [48] of the same substance?
Answer: 1060

Question: And the ECL signal [49]?
Answer: 799

Question: And the ECL signal [50]?
Answer: 633

Question: And the ECL signal [51]?
Answer: 684

Question: With “Fab VH1-46_IGHD6-13*01_IGHJ4*01 & O1_IGKJ1*01” as the substance, how does the ECL signal [52] read?
Answer: 3110

Question: What about the ECL signal [53] of the same substance?
Answer: 2440

Question: What about the ECL signal [54] of the same substance?
Answer: 357

Question: What about the ECL signal [55] of the same substance?
Answer: 277

Question: And the ECL signal [56]?
Answer: 444

Question: What about the ECL signal [57] of the same substance?
Answer: 478

Question: And the ECL signal [58]?
Answer: 803

Question: And the ECL signal [59]?
Answer: 655

From US20110318339A1
